Measurements taken from patent US11795454B2, “Targeted delivery system” (Cedars-Sinai Medical Center, priority 2009, dated 2023).
“Also recorded” adds a separate entry of the source. Like-named read-outs stand apart in the source and are kept apart here.

Assays:
[1] = mouse, in vivo
Source text: Histology of myocardia from treated mice. Micrographs show representative H&E stained specimens from treated mice.
Female immunodeficient (nu/nu) mice (6-8 weeks; Charles River Laboratories International, Wilmington, MA, USA) received subcutaneous bilateral flank injections of 1×10^7 indicated cells and monitored until tumors reached ˜200-300 mm3, at which point the following treatments were initiated. […] To assess therapeutic efficacy, a new group of tumor-bearing mice received daily i.v. (tail vein) injections of HerDox or Dox at indicated doses for 7 days followed by continued monitoring of tumor volumes (assessed by measuring tumor length and width using calipers, and applying LxW2), animal weights, and heart function. […] Cardiac function in anesthetized mice was evaluated by a Vevo 770 High-Frequency Ultrasound system (VisualSonics, Toronto, Canada). Heart rate and body temperature were monitored. Superficial hair was removed from the region of interest with a depilatory cream (Nair) before imaging. The 2-dimensional guided M-mode images of the left ventricle were obtained in the short-axis view at the papillary level with the mouse in the supine position. All primary measurements were traced manually and digitized by goal-directed software installed within the echocardiograph. Three beats were averaged for each measurement. All measurements were done from leading edge to leading edge according to the American Society of Echocardiography guidelines. At animal study completion, tissue harvested from euthanized mice were fixed in 4% paraformaldehyde/PBS at 4° C. for 24 h followed by transfer into 20% sucrose/PBS and storage at −80° C. before immunohistochemical processing. Specimens and hematoxylin/eosin staining were prepared by AML Laboratories, Inc., Baltimore, MD, USA.

[2] = mouse, in vivo; remark: listed apart in the source
Source text: (§1) Control (saline-injected) mice were euthanized early due to tumor ulceration, in compliance with IACUC policy. […] FIG. 30E, TUNEL staining and quantification in liver and kidney tissue obtained from treated mice. Micrographs obtained at 20× magnification (left set of panels) show fluorescently-stained nuclei in apoptotic cells (delineated areas are enlarged in micrographs to the right). Graph summarizes relative fluorescence intensities of each treated tissue (N>200 fields per treatment).
(§2) Fixed, sectioned tissues were processed by incubation in a dry 60° C. oven for 1 h followed by sequential submersion in xylenes for 4 min×5, then hydration in 100%, 95%, 90%, 80%, 70% ethanol for 3 min, 2 times each and final submersion in water. After Proteinase K (20 ug/ml in 10 mM Tris pH 7.8) incubation and rinsing in PBS, sections were treated for TUNEL staining following the manufacturer's instructions (XXX) and assessed by confocal fluorescence imaging. Here, 10 TUNEL images at different locations per tissue were acquired using a Leica confocal SPE microscope (20×, ex: 488 nm, and em: 530 nm). Central regions of each tissue were imaged to avoid fixation artifacts. Nuclear fluorescence intensities, reflective of DNA fragmentation, were measured and averaged using ImageJ.

[3] = HerDox stability in storage, ultrafiltration; assay type: physicochemical; conditions: 4° C., RT, or 37° C. over a 12 day period
Method: FIG. 34A, HerDox stability in different storage conditions. HerDox was incubated at indicated times and temperatures was applied to a 10K mwco ultrafiltration membrane every other day, and retentate and filtrate A480 measured to determine relative Dox retention or release from complexes, respectively. […] FIG. 34B, Assessing stability in serum-containing media by ultrafiltration. HerDox immobilized on Ni-NTA beads (Qiagen Inc., Valencia. CA, USA) by incubation on ice for 2 h with agitation followed by free HerDox removal via bead pelleting/washing in HBS received 10% fetal bovine serum (FBS), to mimic cell culture conditions, and incubated at 37° C. with agitation for the indicated time-points. At each time-point, samples were pelleted and mean A480±SD (N=3) of supernatants (Released) and bead eluates (Retained) were measured. […] Relative Dox release or retention in serum is expressed as normalized to control (corresponding serum-lacking sample). […] Dox fluorescence (top panel) was visualized by UV excitation. […] Dox (1.6 nmoles) was added to serum coated wells and incubated for 30 min at 37° C. with agitation before supernatants were removed and the wells washed once with HBS before fluorescence spectra were measured for pre-incubation sample (Input), supernatant (Free) and wells (Serum-bound). Fluorescence spectra were obtained at Ex 485 nm/Em 520-750 nm with a 515 nm cutoff filter. […]

[4] = TUNEL staining of liver and kidney tissue of treated mice; conditions: mouse, in vivo
Source text: as §1, §2

[5] = Stability in complete cell culture media; assay type: in vitro ADME; conditions: up to 24 h
Method: FIG. 34A, HerDox stability in different storage conditions. HerDox was incubated at indicated times and temperatures was applied to a 10K mwco ultrafiltration membrane every other day, and retentate and filtrate A480 measured to determine relative Dox retention or release from complexes, respectively. […] FIG. 34B, Assessing stability in serum-containing media by ultrafiltration. HerDox immobilized on Ni-NTA beads (Qiagen Inc., Valencia. CA, USA) by incubation on ice for 2 h with agitation followed by free HerDox removal via bead pelleting/washing in HBS received 10% fetal bovine serum (FBS), to mimic cell culture conditions, and incubated at 37° C. with agitation for the indicated time-points. At each time-point, samples were pelleted and mean A480±SD (N=3) of supernatants (Released) and bead eluates (Retained) were measured. […] Relative Dox release or retention in serum is expressed as normalized to control (corresponding serum-lacking sample). […] Dox fluorescence (top panel) was visualized by UV excitation. […] Dox (1.6 nmoles) was added to serum coated wells and incubated for 30 min at 37° C. with agitation before supernatants were removed and the wells washed once with HBS before fluorescence spectra were measured for pre-incubation sample (Input), supernatant (Free) and wells (Serum-bound). Fluorescence spectra were obtained at Ex 485 nm/Em 520-750 nm with a 515 nm cutoff filter.

[6] = CryoEM of HerDox particles; assay type: physicochemical; conditions: mostly round particles
Method: Sample preparation and imaging was performed by NanoImaging Services, Inc., La Jolla, CA, USA.
CryoEM was performed by NanoImaging Services, Inc. (La Jolla, CA, USA) implementing the following procedures (provided by NanoImaging Services, Inc.): Samples were preserved in vitrified ice supported by carbon coated holey carbon films on 400 mesh copper grids. All samples were prepared by applying a 3 μL drop of undiluted sample suspension to a cleaned grid, blotting away with filter paper and immediately proceeding with vitrification in liquid ethane. Grids were stored under liquid Nitrogen until transferred to the electron microscope for imaging. All grids were prepared the day the sample was delivered (complexes were assembled immediately before delivery). Electron microscopy was performed using an FEI Tecnai T12 electron microscope, operating at 120 KeV equipped with an FEI Eagle 4K×4K CCD camera. Vitreous ice grids were transferred into the electron microscope using a stage that maintains the grids at below −170 C. Images of the grid were acquired at multiple scales to assess the overall distribution of the specimen. After identifying potentially suitable target areas for imaging at lower magnifications, higher magnification images were acquired at nominal magnifications of 52,000× (0.21 nm/pixel) and 21,000× (0.50 nm/pixel). […]

Row | Molecule | myocardial histology [1] | stroke volume, cardiac output, left ventricular internal dimension and volume ([1]; 0.004 mg/kg) | apoptosis in the kidney (TUNEL) [2] | apoptosis in the liver (TUNEL) [2] | Dox release in storage [3] | apoptosis in the kidney (TUNEL) [4] | apoptosis in the liver (TUNEL) [4] | loss of Dox in complete cell culture media [5] | particle diameter [6] [nm]
1 | COc1cccc2c1C(=O)c1c(O)c3c(c(O)c1C2=O)C[C@@](O)(C(=O)CO)C[C@@H]3O[C@H]1C[C@H](N)[C@H](O)[C@H](C)O1.Cl [Dox, Doxorubicin-HCl, reference compound] | myofibrillar degeneration | modest to marked reductions | Neither Dox nor HerDox showed substantial apoptosis | marked apoptosis | – | – | – | – | –
2 | HerDox: self-assembled nanoparticle of oligonucleotide duplex, doxorubicin and HerPBK10 (conjugate) LPPRLKEMKSQESAAGSKLVLRCETSSEYSSLRFKWFKNGNELNRKNKPQNIKIQKKPGKSELRINKASLADSGEYMCKVISKLGNDSASANITIVESNEIITGMPASTEGAYVSSESPIRISVSTEGANTSSSTSTSTTGTSHLVKCAEKEKTFCVNGGECFMVKDLSNPSRYLCKCQPGFTGARCTENVPMKVQNQEKAEELYMRRAAMYEEGPPPSYESVVSAAPVAAALGSPFDAPLDPPFVPPRYLRPTGGRNSIRYSELAPLFDTTRVYLVDNKSTDVASLNYQNDHSNFLTTVIQNNDYSPGEASTQTINLDDRSHWGGDLKTILHTNMPNVNEFMFTNKFKARVMVSRLPTKDNQVELKYEWVEFTLPEGNYSETMTIDLMNNAIVEHYLKVGRQNGVLESDIGVKFDTRNFRLGFDPVTGLVMPGVYTNEAFHPDIILLPGCGVDFTHSRLSNLLGIRKRQPFQEGFRITYDDLEGGNIPALLDVDAYQASLKDDTEQGGGGAGGSNSSGSGAEENSNAAAAAMQPVEDMNDHAIRGDTFATRAEEKRAEAEAAAEAAAPAAQPEVEKPQKKPVIKPLTEDSKKRSYNLISNDSTFTQYRSWYLAYNYGDPQTGIRSWTLLCTPDVTCGSEQVYWSLPDMMQDPVTFRSTRQISNFPVVGAELLPVHSKSFYNDQAVYSQLIRQFTSLTHVFNRFPENQILARPPAPTITTVSENVPALTDHGTLPLRNSIGGVQRVTITDARRRTCPYVYKALGIVSPRVLSSRTFKKKKKKKKKK | – | – | – | – | no detectable Dox release | Neither Dox nor HerDox showed substantial apoptosis | did not; also recorded: negligible apoptosis | no loss of Dox from the complex | ~10
